# T1: A domain of S. aureus Newman ClfA (clumping factor A), residues 40-559 (Staphylococcus aureus Newman, UniProt Q53653 40-559)
# T1 construct: Cloned in pET15b (NdeI/BamHI); also called ClfA-A; ClfA-A Newman; source: E. coli BL21, purified (Ni-NTA resin followed by Streptactin resin); not shown: His6, N-terminal, kept
# T1 sequence: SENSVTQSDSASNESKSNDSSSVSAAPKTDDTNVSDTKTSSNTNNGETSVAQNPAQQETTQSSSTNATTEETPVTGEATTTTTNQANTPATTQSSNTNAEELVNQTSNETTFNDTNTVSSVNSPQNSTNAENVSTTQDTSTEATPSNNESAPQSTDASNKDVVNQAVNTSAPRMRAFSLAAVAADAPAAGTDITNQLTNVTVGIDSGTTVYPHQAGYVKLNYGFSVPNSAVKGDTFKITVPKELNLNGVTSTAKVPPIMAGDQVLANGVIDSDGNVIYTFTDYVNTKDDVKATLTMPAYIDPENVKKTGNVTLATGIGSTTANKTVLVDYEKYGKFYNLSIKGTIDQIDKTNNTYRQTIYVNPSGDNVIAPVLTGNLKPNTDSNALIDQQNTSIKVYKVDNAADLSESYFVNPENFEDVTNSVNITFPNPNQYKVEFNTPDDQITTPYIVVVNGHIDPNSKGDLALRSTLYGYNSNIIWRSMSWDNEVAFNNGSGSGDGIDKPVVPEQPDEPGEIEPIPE
# B1: Human fibrinogen (complex)
# chain 1: ADSGEGDFLAEGGGVRGPRVVERHQSACKDSDWPFCSDEDWNYKCPSGCRMKGLIDEVNQDFTNRINKLKNSLFEYQKNNKDSHSLTTNIMEILRGDFSSANNRDNTYNRVSEDLRSRIEVLKRKVIEKVQHIQLLQKNVRAQLVDMKRLEVDIDIKIRSCRGSCSRALAREVDLKDYEDQQKQLEQVIAKDLLPSRDRQHLPLIKMKPVPDLVPGNFKSQLQKVPPEWKALTDMPQMRMELERPGGNEITRGGSTSYGTGSETESPRNPSSAGSWNSGSSGPGSTGNRNPGSSGTGGTATWKPGSSGPGSTGSWNSGSSGTGSTGNQNPGSPRPGSTGTWNPGSSERGSAGHWTSESSVSGSTGQWHSESGSFRPDSPGSGNARPNNPDWGTFEEVSGNVSPGTRREYHTEKLVTSKGDKELRTGKEKVTSGSTTTTRRSCSKTVTKTVIGPDGHKEVTKEVVTSEDGSDCPEAMDLGTLSGIGTLDGFRHRHPDEAAFFDTASTGKTFPGFFSPMLGEFVSETESRGSESGIFTNTKESSSHHPGIAEFPSRGKSSSYSKQFTSSTSYNRGDSTFESKSYKMADEAGSEADHEGTHSTKRGHAKSRPVRGIHTSPLGKPSLSP
# chain 2: QGVNDNEEGFFSARGHRPLDKKREEAPSLRPAPPPISGGGYRARPAKAAATQKKVERKAPDAGGCLHADPDLGVLCPTGCQLQEALLQQERPIRNSVDELNNNVEAVSQTSSSSFQYMYLLKDLWQKRQKQVKDNENVVNEYSSELEKHQLYIDETVNSNIPTNLRVLRSILENLRSKIQKLESDVSAQMEYCRTPCTVSCNIPVVSGKECEEIIRKGGETSEMYLIQPDSSVKPYRVYCDMNTENGGWTVIQNRQDGSVDFGRKWDPYKQGFGNVATNTDGKNYCGLPGEYWLGNDKISQLTRMGPTELLIEMEDWKGDKVKAHYGGFTVQNEANKYQISVNKYRGTAGNALMDGASQLMGENRTMTIHNGMFFSTYDRDNDGWLTSDPRKQCSKEDGGGWWYNRCHAANPNGRYYWGGQYTWDMAKHGTDDGVVWMNWKGSWYSMRKMSMKIRPFFPQQ
# chain 3: YVATRDNCCILDERFGSYCPTTCGIADFLSTYQTKVDKDLQSLEDILHQVENKTSEVKQLIKAIQLTYNPDESSKPNMIDAATLKSRKMLEEIMKYEASILTHDSSIRYLQEIYNSNNQKIVNLKEKVAQLEAQCQEPCKDTVQIHDITGKDCQDIANKGAKQSGLYFIKPLKANQQFLVYCEIDGSGNGWTVFQKRLDGSVDFKKNWIQYKEGFGHLSPTGTTEFWLGNEKIHLISTQSAIPYALRVELEDWNGRTSTADYAMFKVGPEADKYRLTYAYFAGGDAGDAFDGFDFGDDPSDKFFTSHNGMQFSTWDNDNDKFEGNCAEQDGSGWWMNKCHAGHLNGVYYQGGTYSKASTPNGYDNGIIWATWKTRWYSMKKTTMKIIPFNRLTIGEGQQHHLGGAKQAGDV
# notes: Fibrinogen A-alpha chain, human; Fibrinogen B-beta chain, human; Fibrinogen gamma chain, human; also called Fg; source: bought: Sigma; copies: 2 + 2 + 2
# What was measured:
# [1] = target: A domain of ClfA from S. aureus strain WU1 (Staphylococcus aureus WU1); test: ELISA; ClfA-A proteins immobilised (100 ng per well, carbonate/bicarbonate buffer pH 9.6, 4°C overnight); serial dilutions of soluble human fibrinogen (4 mg/mL) in PBS; bound fibrinogen detected with anti-human fibrinogen-HRP, A450
# [2] = target: A domain of ClfA from S. aureus strain N315 (Staphylococcus aureus N315) (UniProt Q99VJ4); test: as above
# [3] = target: A domain of ClfA from S. aureus strain USA300 LAC (Staphylococcus aureus USA300 LAC); test: as above
# [4] = target: Human von Willebrand factor (human) (UniProt P04275); test: ELISA; human vWF immobilised; vWbp with ClfA-A carrying only His tag added to the reaction; bound vWbp assessed with anti-StrepII antibody
# [5] = target: Human von Willebrand factor (human) (UniProt P04275); test: ELISA; human vWF immobilised (100 ng per well); serial dilutions of recombinant ClfA-A (20 μg/mL) or recombinant vWbp (5 μg/mL); detected with anti-StrepII or anti-His HRP antibody
# [6] = target: A domain of S. aureus Newman ClfA (clumping factor A), residues 40-559 (Staphylococcus aureus Newman) (UniProt Q53653); test: ELISA; ClfA-A Newman immobilised (100 ng per well); serial dilutions of human complement factor I (20 μg/mL); detected with rabbit anti-factor I polyclonal antibody and anti-rabbit HRP
# [7] = target: T1, A domain of S. aureus Newman ClfA …; test: ELISA; ClfA-A proteins immobilised (100 ng per well, carbonate/bicarbonate buffer pH 9.6, 4°C overnight); serial dilutions of soluble human fibrinogen (4 mg/mL) in PBS; bound fibrinogen detected with anti-human fibrinogen-HRP, A450; settings: both partners purified
molecule,measurement,setting,value
Human fibrinogen (from UniProt P02671-2 20-644; P02675 31-491; P02679-2 27-437) (complex),EC50,[1],1100 nM
same,EC50,[2],1300 nM
same,EC50,[3],1000 nM
vWbp + ClfA-A Newman (from UniProt Q53653 40-559) (complex),EC50,[4],3500 nM
"von Willebrand binding protein (vWbp) of S. aureus Newman, recombinant (natural protein)",EC50,[5],14500 nM
Human complement factor I (enzyme),EC50,[6],1800 nM
B1,EC50,[7],1300 nM
